Laboratory results as given in patent US7228238B2, “Algorithmic design of peptides for binding and/or modulation of the functions of receptors and/or other proteins” (Cielo Institute, Inc., priority 2000, dated 2007).

What was measured:
[1] = target: T1, human long isoform D2DA receptor (Homo sapiens, UniProt P14416); test: external acidification rate (EAR) by microphysiometry, response to dopamine, D2DA receptor-transfected mouse LtK cell system; settings: for MODULATORY EFFECT LtK: significance class of effect on EAR response to dopamine ≈1 μM; for MODULATORY EFFECT LtK / DIRECT EFFECT LtK / influence on dopamine-induced increment in total milli-pH units (EAR response to dopamine) / ρ of one-tailed t-test paired within chamber, peptide influence on EAR response to dopamine: peptide 1 μM; for MODULATORY EFFECT LtK / DIRECT EFFECT LtK: D2DA-transfected LtK cells; for DIRECT EFFECT LtK: significance class of effect on EAR; for influence on dopamine-induced increment in total milli-pH units (EAR response to dopamine) / ρ of one-tailed t-test paired within chamber, peptide influence on EAR response to dopamine: LtK system, dopamine ≈1 μM
Method: (§2) Both cell systems were stably transfected with human long isoform D2DA receptor cDNA, which had been isolated from a human striatal cDNA library, sequenced and subcloned into the expression vector pRC/RSV (Invitrogen). […] Both systems were grown to confluence in DMEM containing 10% FBS. The cells were serum-starved 18–24 hours prior to use, and then assayed for EAR using a microphysiometer (Cytosensor; Molecular Devices, Sunnyvale, Calif.) in low buffering DMEM with 0.1% culture grade BSA.
(§3) The determination of EAR by microphysiometry involves a proton-sensitive silicon semiconductor photocurrent-driven sensor which measures changes in EAR resulting from effector-evoked alterations in cellular glycolytic and respiratory energy metabolism and/or alterations in sodium-hydrogen exchanges across cellular membranes. Protonic H^+, generated by such energy metabolism or exchanges, neutralizes the charge on the surface of the semiconductor, reducing the photocurrent produced at a rate linearly related to H^+production.
(§4) The microphysiometer monitors pH in flow-through chambers containing the receptor-transfected cells. Generally, if the cells lines used are adherent cell lines, the cells are seeded into “capsule cups”. If the cell lines are non-adherent cell lines, then the cells are immobilized in a fibrin matrix. For all microphysiometer runs, modified low buffering DMEM containing 0.1% BSA is pumped across the cells at a rate of approximately 100 μL/min, during which time the pH of the microenvironment surrounding the sensor surface is maintained at a relatively constant value. The measurement of the acid output rate of the cells, termed the acidification rate, is made when the fluid flow is periodically halted to allow buildup of acidic metabolites in the chamber, resulting in an alteration in the pH of the fluid. The pH is measured in millivolts, and converted to milli-pH units. The changes in pH are expressed as changes in milli-pH units per minute following the linear, time-dependent buildup of H^+during intermittent periods of pump arrest followed by washout. […] Ligand induced, receptor-mediated increases in cell metabolic and Na^+—H^+membrane regulatory activity is seen as an increase in the acidification rate.
(§5) Small Kolmogorov-Smirnov distances supported the assumption of normality in all of the data sets, so within chamber-paired, one-tailed t-tests with a significance criterion of ρ=0.05 were used.

[2] = target: T1, human long isoform D2DA receptor; test: external acidification rate (EAR) by microphysiometry, response to dopamine, D2DA receptor-transfected CHO cell system; settings: peptide 1 μM; for MODULATORY EFFECT CHO: significance class of effect on EAR response to dopamine ≈1 μM; for MODULATORY EFFECT CHO / DIRECT EFFECT CHO: D2DA-transfected CHO cells; for DIRECT EFFECT CHO: significance class of effect on EAR
Method: as §2, §3, §4, §5

[3] = target: T2, human muscarinic M1 receptor (Homo sapiens, UniProt P11229); test: EAR test system, response to carbachol, M1 receptor-transfected CHO-K1 cells; assay type: cell-based; settings: for MODULATORY EFFECT: significance class of effect on EAR due to carbachol
T2 construct: expressed in transfected cells; host or cells: CHO-K1 cells; expression vector pcDNA3; calcium phosphate method; geneticin selection
T2 sequence (P11229 1-460): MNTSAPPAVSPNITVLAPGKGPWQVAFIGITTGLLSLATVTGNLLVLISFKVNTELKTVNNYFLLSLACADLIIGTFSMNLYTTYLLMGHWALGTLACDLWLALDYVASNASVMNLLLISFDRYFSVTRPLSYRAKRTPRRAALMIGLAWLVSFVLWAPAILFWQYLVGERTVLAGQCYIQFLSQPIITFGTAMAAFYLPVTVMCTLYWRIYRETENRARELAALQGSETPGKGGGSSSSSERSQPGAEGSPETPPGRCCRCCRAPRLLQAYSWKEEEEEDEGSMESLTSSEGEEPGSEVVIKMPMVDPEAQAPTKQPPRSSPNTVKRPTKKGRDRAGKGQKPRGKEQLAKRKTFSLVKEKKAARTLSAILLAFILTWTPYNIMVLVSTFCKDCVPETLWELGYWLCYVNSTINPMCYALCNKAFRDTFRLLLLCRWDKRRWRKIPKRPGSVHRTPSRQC
Method: (§1) Peptides derived from receptor protein systems other than the D2DA receptor were also tested for their effects on their respective receptors. For the human muscarinic M1 receptor, CHO cells were transfected with the muscarinic M1 receptor cDNA derived from a human cDNA library essentially as described by Buckley et al. (Mol. Pharmacol. 1989 35:469–476). Briefly, the coding region of the M1 receptor was obtained from a human cDNA library and cloned into the expression vector pcDNA3 (Invitrogen, San Diego, Calif.). CHO-K1 cells were transformed with the construct, using the calcium phosphate method. Stably expressing transformants were obtained in the presence of 250 μg/ml geneticin. Transformed cell lines expressing the human NGF receptor also were obtained. The effects of the peptides derived by the methods of the present invention on the activities of the corresponding receptors in the transformed cell lines were evaluated in the same manner as described above for the D2DA-targeted algorithmically derived peptides, using the EAR test system.

human NGF receptor = test: EAR test system, transformed cell line expressing the NGF receptor, response to NGF; assay type: cell-based; settings: for MODULATORY EFFECT: significance class of change in EAR response to NGF; for MODULATORY EFFECT / DIRECT EFFECT: NGF receptor cell line; for DIRECT EFFECT: significance class of change in EAR; for effect on EAR response to NGF: NGF receptor inhibition assay, PC-12 cells
Method: as §1
The hydrophobic wavelength of a peptide containing L-amino acids is the same as a peptide containing D-amino acids in which the sequence is inverted. Such “retro-inverso” peptides have been previously described (Chorev, M. and Goodman, M. (1995) Trends Biotechnol. 13:438–445), but their use as mode-matched binding peptides has never before been contemplated. A retro-inverso peptide containing D-amino acids and having the sequence […] was synthesized (SEQ ID NO:97). This sequence of this peptide is inverted from that of peptide of SEQ ID NO:27, used in the NGF receptor inhibition assay. […] The peptide of SEQ ID NO:97 was tested in the same assay as the L-amino acid, forward sequence peptide of SEQ ID NO: 27.

[4] = CHO cell system, dopamine ≈1 μM

T1 sequence (P14416 whole entry, canonical isoform): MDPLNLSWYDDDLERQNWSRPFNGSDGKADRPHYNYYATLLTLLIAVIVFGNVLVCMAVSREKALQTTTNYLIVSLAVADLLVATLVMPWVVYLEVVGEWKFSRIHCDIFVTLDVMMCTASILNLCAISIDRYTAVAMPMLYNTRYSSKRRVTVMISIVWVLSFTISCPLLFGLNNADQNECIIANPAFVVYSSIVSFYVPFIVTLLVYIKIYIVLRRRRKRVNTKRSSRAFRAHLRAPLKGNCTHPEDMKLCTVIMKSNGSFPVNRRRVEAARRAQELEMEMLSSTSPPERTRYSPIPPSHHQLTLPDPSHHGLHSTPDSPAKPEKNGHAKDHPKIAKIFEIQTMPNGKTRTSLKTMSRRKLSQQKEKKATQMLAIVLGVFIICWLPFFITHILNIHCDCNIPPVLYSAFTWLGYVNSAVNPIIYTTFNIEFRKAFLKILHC

1 (SHQRWEYKGVNCIVY) [compound 1]
MODULATORY EFFECT LtK [1]: *** (***ρ ≦ 0.001) | DIRECT EFFECT LtK [1]: *** (***ρ ≦ 0.001) | MODULATORY EFFECT CHO [2]: *** (***ρ ≦ 0.001) | DIRECT EFFECT CHO [2]: *** (***ρ ≦ 0.001)

3 (ERNRKPYRPKNKYLL) [compound 3]
MODULATORY EFFECT LtK [1]: *** (***ρ ≦ 0.001)

4 (ERNKLNYKNKNKYIL) [compound 4]
MODULATORY EFFECT LtK [1]: *** (***ρ ≦ 0.001)

5 (SHTAYHWMSCGKIVI) [compound 5]
MODULATORY EFFECT LtK [1]: * (*0.01 < ρ ≦ 0.05) | MODULATORY EFFECT CHO [2]: *** (***ρ ≦ 0.001)

7 (SHQAWRYKNVNCYVI) [compound 7]
MODULATORY EFFECT LtK [1]: *** (***ρ ≦ 0.001)

8 (GETAFRYVNCNVYVYI) [compound 8]
DIRECT EFFECT LtK [1]: *** (***ρ ≦ 0.001) | DIRECT EFFECT CHO [2]: ** (**0.001 < ρ ≦ 0.01)

13 (FSFQCKSINYEALGY) [compound 13]
DIRECT EFFECT ([3]; significance class of effect on EAR): ** (** 0.001 < ρ ≦ 0.01) | MODULATORY EFFECT [3]: ** (** 0.001 < ρ ≦ 0.01)

14 (FSFGVKSWQYHALGY) [compound 14]
MODULATORY EFFECT [3]: * (* 0.01 < ρ ≦ 0.05)

15 (ITFTVKGLTLAAFTY) [compound 15]
MODULATORY EFFECT [3]: *** (*** ρ ≦ 0.001)

16 (ISFNKCTWSFERYSL) [compound 16]
MODULATORY EFFECT [3]: * (* 0.01 < ρ ≦ 0.05)

17 (FNLSVKQWNYRAYNL) [compound 17]
MODULATORY EFFECT [3]: ** (** 0.001 < ρ ≦ 0.01)

23 (DLCRSARSDIEVTEY) [compound 23]
MODULATORY EFFECT (human NGF receptor): *** (*** ρ ≦ 0.001) | DIRECT EFFECT (human NGF receptor): ** (** 0.001 < ρ ≦ 0.01)

24 (RFVASAATEIEVNRL) [compound 24]
MODULATORY EFFECT (human NGF receptor): ** (** 0.001 < ρ ≦ 0.01)

25 (HYCASADPRIHKNAL) [compound 25]
MODULATORY EFFECT (human NGF receptor): *** (*** ρ ≦ 0.001)

26 (DFVDGAAGRLHKGEY) [compound 26]
MODULATORY EFFECT (human NGF receptor): ** (** 0.001 < ρ ≦ 0.01)

27 (DIKATEATDIEKGHL) [compound 27]
MODULATORY EFFECT (human NGF receptor): *** (*** ρ ≦ 0.001)

28 (RFVDNDATDIEKGRI) [compound 28]
MODULATORY EFFECT (human NGF receptor): *** (*** ρ ≦ 0.001) | DIRECT EFFECT (human NGF receptor): * (* 0.01 < ρ ≦ 0.05)

29 (RFVRGDRNHFDCGEL) [compound 29]
MODULATORY EFFECT (human NGF receptor): *** (*** ρ ≦ 0.001) | DIRECT EFFECT (human NGF receptor): * (* 0.01 < ρ ≦ 0.05)

30 (HFVRNERTHFDVSAL) [compound 30]
MODULATORY EFFECT (human NGF receptor): * (* 0.01 < ρ ≦ 0.05) | DIRECT EFFECT (human NGF receptor): * (* 0.01 < ρ ≦ 0.05)

ERNRKPLRPKNKYLI [E . . . PL]
influence on dopamine-induced increment in total milli-pH units (EAR response to dopamine) [1]: statistically significant activation

ERNRKPYRPKNKYLL [E . . . PY]
influence on dopamine-induced increment in total milli-pH units (EAR response to dopamine) [1]: statistically significant activation

H-DIKATEATDIEKGHL-OH [SEQ ID NO:27]
effect on EAR response to NGF (human NGF receptor): significantly down-regulated

H-SHQRWEYKGVNCIVY-OH [SEQ ID NO:1]
EAR dose response curves ([1]; LtK cells, dopamine 10^−8.5M to 10^−5.5M, peptide 10 nM to 3 μM): asymptotic sigmoidal kinetics, suggestive of positive cooperativity | influence on dopamine-induced increment in total milli-pH units (EAR response to dopamine) [1]: significantly potentiated | ρ of one-tailed t-test paired within chamber, peptide influence on EAR response to dopamine [1]: 0.0009 | influence on dopamine-induced increment in total milli-pH units (EAR response to dopamine) [2, 4]: significantly potentiated | ρ of one-tailed t-test paired within chamber, peptide influence on EAR response to dopamine [2, 4]: < 0.0001

H-THQAFHYCNKQCLVI-OH (cysteine pairing not given here) [SEQ ID NO:2]
influence on dopamine-induced increment in total milli-pH units (EAR response to dopamine) [1]: did not significantly potentiate | ρ of one-tailed t-test paired within chamber, peptide influence on EAR response to dopamine [1]: > 0.05 | influence on dopamine-induced increment in total milli-pH units (EAR response to dopamine) [2, 4]: did not significantly potentiate

LHGKEIDTAETAKID [SEQ ID NO:97]
effect on EAR response to NGF (human NGF receptor): also down-regulated the EAR response of PC-12 cells to NGF, to an extent comparable
